{"source": "paper PMC2840211", "molecules": {"B1": {"name": "ectodomain of RAE-1β PLWY-deletion mutant (domain or fragment)", "chain": "GLDDAHSLRCNLTIKDPTPADEAKCFVGEILILHLSNINKTMTSGDPGETANATEVKKCLTQPLKNLCQKLRNKVSNTKVDTHKTNGYPHLQVTMIYPQSQGRTPSATWEFNISDSYFFTFYTENMSWRSANDESGVIMNKWKDDGEFVKQLKFLIHECSQKMDEFLKQSKEKP"}, "B2": {"name": "ectodomain of RAE-1δ (domain or fragment)", "chain": "B1 chain with D16A, A23V, K57G, K58E, N66D, N73D, R103Q, N125I, E158G"}, "B3": {"name": "ectodomain of RAE-1γ (domain or fragment)", "chain": "GLDDAHSLRCNLTIKAPTPADPLWYEAKCLVDEILILHLSNINKTMTSGDPGETANATEVGECLTQPVNDLCQKLRDKVSNTKVDTHKTNGYPHLQVTMIYPQSQGQTPSATWEFNISDSYFFTFYTENMSWRSANDESGVIMNKWNDDGDLVQRLKYFIPECRQKIDEFLKQSKEKP"}, "B4": {"name": "ectodomain of RAE-1γ PLWY-deletion mutant (domain or fragment)", "chain": "GLDDAHSLRCNLTIKAPTPADEAKCLVDEILILHLSNINKTMTSGDPGETANATEVGECLTQPVNDLCQKLRDKVSNTKVDTHKTNGYPHLQVTMIYPQSQGQTPSATWEFNISDSYFFTFYTENMSWRSANDESGVIMNKWNDDGDLVQRLKYFIPECRQKIDEFLKQSKEKP"}, "B5": {"name": "ectodomain of RAE-1β (domain or fragment)", "chain": "GLDDAHSLRCNLTIKDPTPADPLWYEAKCFVGEILILHLSNINKTMTSGDPGETANATEVKKCLTQPLKNLCQKLRNKVSNTKVDTHKTNGYPHLQVTMIYPQSQGRTPSATWEFNISDSYFFTFYTENMSWRSANDESGVIMNKWKDDGEFVKQLKFLIHECSQKMDEFLKQSKEKP"}}, "key": {"RAE-1δ (Mus musculus)": {"target": "RAE-1δ (Mus musculus) (UniProt Q9JI58)", "sequence (Q9JI58 29-225, stated change not applied)": "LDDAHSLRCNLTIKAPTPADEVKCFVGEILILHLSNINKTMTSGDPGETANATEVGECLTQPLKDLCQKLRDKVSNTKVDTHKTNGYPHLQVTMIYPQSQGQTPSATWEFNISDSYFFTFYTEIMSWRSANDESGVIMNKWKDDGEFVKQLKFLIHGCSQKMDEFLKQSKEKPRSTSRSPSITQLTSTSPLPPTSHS", "conditions": "cited from earlier work"}, "[1]": {"target": "ectodomain of m152 (mouse cytomegalovirus m152/gp40 immunoevasin) (mouse cytomegalovirus (MCMV))", "assay": "AUC"}, "[2]": {"target": "ectodomain of m152 (mouse cytomegalovirus m152/gp40 immunoevasin) (mouse cytomegalovirus (MCMV))", "assay": "AUC", "remark": "listed apart in the source"}, "[3]": {"target": "ectodomain of m152 (mouse cytomegalovirus m152/gp40 immunoevasin) (mouse cytomegalovirus (MCMV))", "assay": "ITC"}}, "note": "Numbering of substitutions follows the chain as printed."}
{"molecule": "NKG2D (from UniProt O54709)", "values": [{"measurement": "Kd", "setting": "RAE-1δ (Mus musculus)", "result": 726, "unit": "nM"}]}
{"molecule": "B1", "values": [{"measurement": "Kd", "setting": "[1]", "result": 31000, "unit": "nM"}]}
{"molecule": "B2", "values": [{"measurement": "Kd", "setting": "[1]", "result": 34000, "unit": "nM"}]}
{"molecule": "B3", "values": [{"measurement": "Kd", "setting": "[1]", "result": 1000, "unit": "nM"}]}
{"molecule": "B4", "values": [{"measurement": "Kd", "setting": "[1]", "result": 1400, "unit": "nM"}]}
{"molecule": "B5", "values": [{"measurement": "Kd", "setting": "[2]", "result": 1700, "unit": "nM"}, {"measurement": "Kd", "setting": "[1]", "result": 4100, "unit": "nM"}, {"measurement": "koff", "setting": "[1]", "result": "> 0.001", "unit": "s⁻¹"}, {"measurement": "stoichiometry N", "setting": "[1]", "result": 1}, {"measurement": "Kd", "setting": "[3]", "result": 2100, "unit": "nM"}]}
